# Assay results: patent US20210032299A1 (Eli Lilly, published 2021)
# Substitutions are numbered along the chain they refer to. Starred links: 1 amine or outer side, 2 acyl side, 3 side chain; linkers in the order of their positions; H or OH if unused. Non-standard residues stand in square brackets, D forms with d. Groups on a side chain read outwards from the residue. No end group written: not given here. *: point of attachment. C20 diacid = O=C(O)CCCCCCCCCCCCCCCCCCC(=O)*; αMePhe(2-F) = C[C@](N)(Cc1ccccc1F)C(=O)O; γGlu = O=C(O)[C@H](CCC(=O)[*:2])N[*:1]; αMeF = C[C@](N)(Cc1ccccc1)C(=O)O; 4Pal = N[C@@H](Cc1ccncc1)C(=O)O; αMeL = CC(C)C[C@](C)(N)C(=O)O; Orn = NCCC[C@H](N)C(=O)O; AEEA = NCCOCCOCC(=O)O; Aib = CC(C)(N)C(=O)O
# T1: human glucose-dependent insulinotropic polypeptide (GIP) receptor (human, UniProt P48546 22-466)
# T1 construct: whole, on cells; Assayed as crude membranes of stably transfected CHO cells; also called hGIPR; human GIP receptor
# T1 sequence (looked up): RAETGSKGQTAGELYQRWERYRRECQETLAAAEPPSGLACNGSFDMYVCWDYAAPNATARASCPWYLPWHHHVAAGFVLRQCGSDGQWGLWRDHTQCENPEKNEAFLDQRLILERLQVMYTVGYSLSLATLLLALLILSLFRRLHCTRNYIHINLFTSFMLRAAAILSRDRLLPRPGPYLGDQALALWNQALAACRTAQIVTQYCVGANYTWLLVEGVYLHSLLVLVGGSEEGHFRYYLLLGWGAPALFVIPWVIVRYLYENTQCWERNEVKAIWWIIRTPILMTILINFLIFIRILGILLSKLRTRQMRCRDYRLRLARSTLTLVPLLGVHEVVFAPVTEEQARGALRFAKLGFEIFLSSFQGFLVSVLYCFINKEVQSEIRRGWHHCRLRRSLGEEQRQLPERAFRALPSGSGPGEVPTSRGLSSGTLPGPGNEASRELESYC
# B1: Example 41 (peptide)
# peptide: Y[Aib]EGT[αMeF]ISDYSIALDKK([AEEA-AEEA-γGlu-C20 diacid])HQ[Aib]DFVE[4Pal]LLETGPSSGAPPPS-NH2
# modifications: N-terminus assumed
# SMILES: CC[C@H](C)[C@H](NC(=O)[C@H](CO)NC(=O)[C@H](Cc1ccc(O)cc1)NC(=O)[C@H](CC(=O)O)NC(=O)[C@H](CO)NC(=O)[C@@H](NC(=O)[C@](C)(Cc1ccccc1)NC(=O)[C@@H](NC(=O)CNC(=O)[C@H](CCC(=O)O)NC(=O)C(C)(C)NC(=O)[C@@H](N)Cc1ccc(O)cc1)[C@@H](C)O)[C@@H](C)CC)C(=O)N[C@@H](C)C(=O)N[C@@H](CC(C)C)C(=O)N[C@@H](CC(=O)O)C(=O)N[C@@H](CCCCN)C(=O)N[C@@H](CCCCNC(=O)COCCOCCNC(=O)COCCOCCNC(=O)CC[C@H](NC(=O)CCCCCCCCCCCCCCCCCCC(=O)O)C(=O)O)C(=O)N[C@@H](Cc1c[nH]cn1)C(=O)N[C@@H](CCC(N)=O)C(=O)NC(C)(C)C(=O)N[C@@H](CC(=O)O)C(=O)N[C@@H](Cc1ccccc1)C(=O)N[C@H](C(=O)N[C@@H](CCC(=O)O)C(=O)N[C@@H](Cc1ccncc1)C(=O)N[C@@H](CC(C)C)C(=O)N[C@@H](CC(C)C)C(=O)N[C@@H](CCC(=O)O)C(=O)N[C@H](C(=O)NCC(=O)N1CCC[C@H]1C(=O)N[C@@H](CO)C(=O)N[C@@H](CO)C(=O)NCC(=O)N[C@@H](C)C(=O)N1CCC[C@H]1C(=O)N1CCC[C@H]1C(=O)N1CCC[C@H]1C(=O)N[C@@H](CO)C(N)=O)[C@@H](C)O)C(C)C
# B2: Example 121 (peptide)
# peptide: Y[Aib]EGT[αMePhe(2-F)]ISDYSILLDKIHQ[Aib]DFVE[4Pal]K([AEEA-AEEA-γGlu-C20 diacid])LEQGPSSGAPPPS-NH2
# modifications: N-terminus assumed
# SMILES: CC[C@H](C)[C@H](NC(=O)[C@H](CO)NC(=O)[C@H](Cc1ccc(O)cc1)NC(=O)[C@H](CC(=O)O)NC(=O)[C@H](CO)NC(=O)[C@@H](NC(=O)[C@](C)(Cc1ccccc1F)NC(=O)[C@@H](NC(=O)CNC(=O)[C@H](CCC(=O)O)NC(=O)C(C)(C)NC(=O)[C@@H](N)Cc1ccc(O)cc1)[C@@H](C)O)[C@@H](C)CC)C(=O)N[C@@H](CC(C)C)C(=O)N[C@@H](CC(C)C)C(=O)N[C@@H](CC(=O)O)C(=O)N[C@@H](CCCCN)C(=O)N[C@H](C(=O)N[C@@H](Cc1c[nH]cn1)C(=O)N[C@@H](CCC(N)=O)C(=O)NC(C)(C)C(=O)N[C@@H](CC(=O)O)C(=O)N[C@@H](Cc1ccccc1)C(=O)N[C@H](C(=O)N[C@@H](CCC(=O)O)C(=O)N[C@@H](Cc1ccncc1)C(=O)N[C@@H](CCCCNC(=O)COCCOCCNC(=O)COCCOCCNC(=O)CC[C@H](NC(=O)CCCCCCCCCCCCCCCCCCC(=O)O)C(=O)O)C(=O)N[C@@H](CC(C)C)C(=O)N[C@@H](CCC(=O)O)C(=O)N[C@@H](CCC(N)=O)C(=O)NCC(=O)N1CCC[C@H]1C(=O)N[C@@H](CO)C(=O)N[C@@H](CO)C(=O)NCC(=O)N[C@@H](C)C(=O)N1CCC[C@H]1C(=O)N1CCC[C@H]1C(=O)N1CCC[C@H]1C(=O)N[C@@H](CO)C(N)=O)C(C)C)[C@@H](C)CC
# B3: Example 122 (peptide)
# peptide: Y[Aib]EGTFISDYSI[αMeL]LD[Orn]IHQ[Aib]EFVE[4Pal]K([AEEA-AEEA-γGlu-C20 diacid])LEAGPSSGAPPPS-NH2
# modifications: N-terminus assumed
# SMILES: CC[C@H](C)[C@H](NC(=O)[C@H](CCCN)NC(=O)[C@H](CC(=O)O)NC(=O)[C@H](CC(C)C)NC(=O)[C@](C)(CC(C)C)NC(=O)[C@@H](NC(=O)[C@H](CO)NC(=O)[C@H](Cc1ccc(O)cc1)NC(=O)[C@H](CC(=O)O)NC(=O)[C@H](CO)NC(=O)[C@@H](NC(=O)[C@H](Cc1ccccc1)NC(=O)[C@@H](NC(=O)CNC(=O)[C@H](CCC(=O)O)NC(=O)C(C)(C)NC(=O)[C@@H](N)Cc1ccc(O)cc1)[C@@H](C)O)[C@@H](C)CC)[C@@H](C)CC)C(=O)N[C@@H](Cc1c[nH]cn1)C(=O)N[C@@H](CCC(N)=O)C(=O)NC(C)(C)C(=O)N[C@@H](CCC(=O)O)C(=O)N[C@@H](Cc1ccccc1)C(=O)N[C@H](C(=O)N[C@@H](CCC(=O)O)C(=O)N[C@@H](Cc1ccncc1)C(=O)N[C@@H](CCCCNC(=O)COCCOCCNC(=O)COCCOCCNC(=O)CC[C@H](NC(=O)CCCCCCCCCCCCCCCCCCC(=O)O)C(=O)O)C(=O)N[C@@H](CC(C)C)C(=O)N[C@@H](CCC(=O)O)C(=O)N[C@@H](C)C(=O)NCC(=O)N1CCC[C@H]1C(=O)N[C@@H](CO)C(=O)N[C@@H](CO)C(=O)NCC(=O)N[C@@H](C)C(=O)N1CCC[C@H]1C(=O)N1CCC[C@H]1C(=O)N1CCC[C@H]1C(=O)N[C@@H](CO)C(N)=O)C(C)C
# B4: Example 3 (peptide)
# peptide: Y[Aib]EGTFISDYSI[αMeL]LDKK([AEEA-AEEA-γGlu-C20 diacid])HQ[Aib]DFVE[4Pal]LLEAGPSSGAPPPS-NH2
# modifications: N-terminus assumed
# SMILES: CC[C@H](C)[C@H](NC(=O)[C@H](Cc1ccccc1)NC(=O)[C@@H](NC(=O)CNC(=O)[C@H](CCC(=O)O)NC(=O)C(C)(C)NC(=O)[C@@H](N)Cc1ccc(O)cc1)[C@@H](C)O)C(=O)N[C@@H](CO)C(=O)N[C@@H](CC(=O)O)C(=O)N[C@@H](Cc1ccc(O)cc1)C(=O)N[C@@H](CO)C(=O)N[C@H](C(=O)N[C@@](C)(CC(C)C)C(=O)N[C@@H](CC(C)C)C(=O)N[C@@H](CC(=O)O)C(=O)N[C@@H](CCCCN)C(=O)N[C@@H](CCCCNC(=O)COCCOCCNC(=O)COCCOCCNC(=O)CC[C@H](NC(=O)CCCCCCCCCCCCCCCCCCC(=O)O)C(=O)O)C(=O)N[C@@H](Cc1c[nH]cn1)C(=O)N[C@@H](CCC(N)=O)C(=O)NC(C)(C)C(=O)N[C@@H](CC(=O)O)C(=O)N[C@@H](Cc1ccccc1)C(=O)N[C@H](C(=O)N[C@@H](CCC(=O)O)C(=O)N[C@@H](Cc1ccncc1)C(=O)N[C@@H](CC(C)C)C(=O)N[C@@H](CC(C)C)C(=O)N[C@@H](CCC(=O)O)C(=O)N[C@@H](C)C(=O)NCC(=O)N1CCC[C@H]1C(=O)N[C@@H](CO)C(=O)N[C@@H](CO)C(=O)NCC(=O)N[C@@H](C)C(=O)N1CCC[C@H]1C(=O)N1CCC[C@H]1C(=O)N1CCC[C@H]1C(=O)N[C@@H](CO)C(N)=O)C(C)C)[C@@H](C)CC
# B5: Example 1 (peptide)
# peptide: YXEGTFISDYSILLDKKAQXDFVNWLLAQGPSSGAPPPS
# modifications: D-Ala2; K17((2-[2-(2-Amino-ethoxy)-ethoxy]-acetyl)2-(γ-Glu)-CO-(CH2)18-CO2H); Aib20; C-terminal amide
# B6: Example 2 (peptide)
# peptide: B5 peptide
# modifications: D-Ala2; K17((2-[2-(2-Amino-ethoxy)-ethoxy]-acetyl)2-(γ-Glu)-CO-(CH2)16-CO2H); Aib20; C-terminal amide
# B7: Example 17 (peptide)
# peptide: B5 peptide with A28E
# modifications: D-Ala2; K17((2-[2-(2-Amino-ethoxy)-ethoxy]-acetyl)2-(γ-Glu)-CO-(CH2)16-CO2H); Aib20; C-terminal amide
# B8: Example 29 (peptide)
# peptide: B5 peptide with D21E, N24E, Q29G
# modifications: D-Ala2; K17((2-[2-(2-Amino-ethoxy)-ethoxy]-acetyl)2-(γ-Glu)-CO-(CH2)16-CO2H); Aib20; C-terminal amide
# B9: Example 19 (peptide)
# peptide: B5 peptide with Q29G
# modifications: D-Ala2; K17((2-[2-(2-Amino-ethoxy)-ethoxy]-acetyl)2-(γ-Glu)-CO-(CH2)16-CO2H); Aib20; C-terminal amide
# B10: Example 27 (peptide)
# peptide: B5 peptide with D21E, N24Q, Q29G
# modifications: D-Ala2; K17((2-[2-(2-Amino-ethoxy)-ethoxy]-acetyl)2-(γ-Glu)-CO-(CH2)16-CO2H); Aib20; C-terminal amide
# B11: Example 28 (peptide)
# peptide: B5 peptide with D21E, A28E, Q29G
# modifications: D-Ala2; K17((2-[2-(2-Amino-ethoxy)-ethoxy]-acetyl)2-(γ-Glu)-CO-(CH2)16-CO2H); Aib20; C-terminal amide
# B12: Example 20 (peptide)
# peptide: B5 peptide with D21E
# modifications: D-Ala2; K17((2-[2-(2-Amino-ethoxy)-ethoxy]-acetyl)2-(γ-Glu)-CO-(CH2)16-CO2H); Aib20; C-terminal amide
# B13: Example 16 (peptide)
# peptide: B5 peptide with N24E
# modifications: D-Ala2; K17((2-[2-(2-Amino-ethoxy)-ethoxy]-acetyl)2-(γ-Glu)-CO-(CH2)16-CO2H); Aib20; C-terminal amide
# Biological target: T1, human glucose-dependent insulinotropic …
# Assay: SPA, displacement of [125I]-GIP from hGIPR membranes, 0.1% bacitracin
row,Binder,Ki [nM]
1,B1,0.143
2,B2,0.103
3,B3,0.0311
4,B4,0.0525
5,B5,0.0667
6,B6,0.0373
7,B7,0.0571
8,B8,0.0569
9,B9,0.0469
10,B10,0.0354
11,B11,0.0732
12,B12,0.0477
13,B13,0.0438

# Biological target: T2, human glucagon receptor (human, UniProt P47871 26-477)
# T2 construct: whole, on cells; Assayed as crude membranes of stably transfected HEK293 cells; also called hGcgR; GcgR
# Assay: SPA, displacement of [125I]-Gcg from hGcgR membranes, 0.1% bacitracin
# Protocol: The binding buffer contains 25 mM 4-(2-hydroxyethyl)-1-piperazineethanesulfonic acid (HEPES), pH 7.4, 2.5 mM CaCl₂), 1 mM MgCl₂, 0.1% (w/v) bacitracin (Research Products), 0.003% (w/v) Polyoxyethylenesorbitan monolaurate (TWEEN®-20), and Roche Complete™ Protease Inhibitors without EDTA. […] Plates are sealed and mixed on a plate shaker (setting 6) for 1 minute and read with a PerkinElmer Trilux MicroBeta® scintillation counter after 12 hours of incubation/settling time at room temperature.
# Data are analyzed using four-parameter (curve maximum, curve minimum, […], Hill slope) nonlinear regression routines (Genedata Screener, version 12.0.4, Genedata AG, Basal, Switzerland). […] Values for Kᵢ are reported as the geometric mean, with error expressed as the standard error of the mean (SEM) and n is equal to the number of independent replicates (determined in assays performed on different days).
# T2 sequence (P47871 26-477): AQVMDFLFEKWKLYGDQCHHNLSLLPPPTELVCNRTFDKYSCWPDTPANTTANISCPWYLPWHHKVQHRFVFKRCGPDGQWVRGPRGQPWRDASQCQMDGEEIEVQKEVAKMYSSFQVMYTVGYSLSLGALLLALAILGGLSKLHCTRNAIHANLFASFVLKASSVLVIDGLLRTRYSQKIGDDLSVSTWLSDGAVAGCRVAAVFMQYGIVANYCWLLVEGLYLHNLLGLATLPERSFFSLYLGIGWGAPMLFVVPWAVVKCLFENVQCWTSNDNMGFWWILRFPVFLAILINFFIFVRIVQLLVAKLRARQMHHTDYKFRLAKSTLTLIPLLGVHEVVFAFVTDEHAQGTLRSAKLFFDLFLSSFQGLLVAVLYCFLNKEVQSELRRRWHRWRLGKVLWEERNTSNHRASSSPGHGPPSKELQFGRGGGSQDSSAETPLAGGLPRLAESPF
row,Binder,Ki [nM]
1,B1,758
2,B2,94.9
3,B3,957
4,B4,338
5,B5,228
6,B6,379
7,B7,274
8,B8,133
9,B9,335
10,B10,401
11,B11,86.8
12,B12,216
13,B13,549

# Biological target: T3, human GLP-1 receptor (human, UniProt P43220 24-463)
# T3 construct: whole, on cells; Assayed as crude membranes of stably transfected HEK293 cells; also called hGLP1R; hGLP-1R
# Assay: SPA, displacement of [125I]-GLP-1 from hGLP-1R membranes, 0.1% bacitracin
# Method in brief: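 Binding buffer: 25 mM HEPES pH 7.4, 2.5 mM CaCl₂, 1 mM MgCl₂, 0.1% bacitracin, 0.003% Tween-20, protease inhibitors without EDTA. Four-parameter nonlinear regression; Kᵢ given as geometric mean ± SEM, n = independent replicates run on different days.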
row,Binder,Ki [nM]
1,B4,381
2,B5,57.8
3,B6,77.9
4,B7,106
5,B8,22.7
6,B9,15.2
7,B10,23.2
8,B11,6.46
9,B12,79.8
10,B13,99.2
